Test results: the DeepSol protein solubility set

Test: soluble on expression in E. coli; label from the status in PepcDB or PDB records

| Sequence | soluble on expression in E. coli |
| --- | --- |
| GPGSMSLEGKVALITGAGSGFGEGMAKRFAKGGAKVVIVDRDKAGAERVAGEIGDAALAVAADISKEADVDAAVEAALSKFGKVDILVNNAGIGHKPQNAELVEPEEFDRIVGVNVRGVYLMTSKLIPHFKENGAKGQECVILNVASTGAGRPRPNLAWYNATKGWVVSVTKALAIELAPAKIRVVALNPVAGETPLLTTFMGEDSEEIRKKFRDSIPMGRLLKPDDLAEAAAFLCSPQASMITGVALDVDGGRSIGGRSI | soluble |
| MRTIDDRIVHSLNTTVPTASFSGKVDATQTCKELYESLMEAHLSRDKAIKSCIKETSAVVSQLREERAKDSDNLSVIKQLRKEQTKLKLMQSELNVEEVVNDRSLKVFNERCRIHYTPPKIK | soluble |
| MTSRVDPANPGSELDSAIRDTLTYSNSPVPNALLTASESGFLDAAGIELDVLSGQQGTVHFTYDQPAYTRFGGEIPPLLSEGLRAPGRTRLLGITPLLGRQGFFVRDDSPITAAADLAGRRIGVSASAIRILRGQLGDYLELDPWRQTLVALGSWEARALLHTLEHGELGVDDVELVPISSPGVDVPAEQLEESATVKGADLFPDVARGQAAVLASGDVDALYSWLPWAGELQATGARPVVDLGLDERNAYASVWTVSSGLVRQRPGLVQRLVDAAVDAGLWARDHSDAVTSLHAANLGVSTGAVGQGFGADFQQRLVPRLDHDALALLERTQQFLLTNNLLQEPVALDQWAAPEFLNNSLNRHR | soluble |
| MKNESIKIFQKKKQVILEKWITIQSQDQGLNNDLITNEDLRVQSEELLYTFIDNLTDNNIENPDSRDFENVLDILSSISISRAKQGYSPRETGFYVYSLKEALLSVLNEEIKDSSVLYTQSMAINKLLDSFTISTFETFIKGREDVIFRQTDEITQISTPVIRVWDGILALPIIGTLDSSRTQVVMESLLQEIVDTGSSIAILDISGVPAVDSLVAQHLIKTVSATRLMGAECIISGIRPEIAQTVVHLGIDLSTIITKATLASALKTAFVMLNLEVNKKQRNKTV | not soluble |
| MSNGIVIIGSGFAARQLVKNIRKQDATIPLTLIAADSMDEYNKPDLSHVISQGQRADDLTRQTAGEFAEQFNLHLFPQTWVTDIDAEARVVKSQNNQWQYDKLVLATGASAFVPPVPGRELMLTLNSQQEYRACETQLRDARRVLIVGGGLIGSELAMDFCRAGKAVTLIDNAASILASLMPPEVSSRLQHRLTEMGVHLLLKSQLQGLEKTDSGIQATLDRQRNIEVDAVIAATGLRPETALARRAGLTINRGVCVDSYLQTSNTDIYALGDCAEINGQVLPFLQPIQLSAMVLAKNLLGNNTPLKLPAMLVKIKTPELPLHLAGETQRQDLRWQINTERQGMVARGVDDADQLRAFVVSEDRMKEAFGLLKTLPM | not soluble |
| AHHHHHHGSRVLVTTWGNPFQWEPITYEYRGIKVKSRNTLPILVKTLEPERILILVADTMANYYDSGKNKPEIEEKSFSSYSEVVEDTKERILWHIKEEVIEELREEDPELAKKIENMLKDERITIEVLPGVGVFGNITVEGEMLDFYYYATYKLAEWLPVQNNLEVYLDLTHGINFMPTFTYRALRNLLGLLAYLYNVKFEIVNSEPYPLGVSQEIREDTILHIREIGEGVVRPRPQYSPVEGKLYWNAFISSVANGFPLVFASFYPNIRDVEDYLNKKLEEFLVGIEVGEREDGKPYVKREKALDRSFKNASKLYYALRVFNTKFQNYPKKEVPIEEIMEISKIFESLPRIGIILERQVEWLRNLVYGRLWYENGEQKIKKGLLEIIKDKKDKRKEAEALKKGKTISLAEAAKLTRIFSPSGERIETIESPNVVRNFIAHSGFEYNIVYVKYDRLSDRLYFFYKDKEKAANLAYEALLYRGEKE | soluble |
| MGSDKIHHHHHHMKINRLTEIIVILLNKKLVTAKELADRFEVSTRTIYRDIETLSMSGVPVYMTKGKGGGISLIEEYSIDKAILSKKDKESLIVALKTLQATKYPEINSVVNKIGSIFGEQNFSNWIEIDFTEWGSNFNEDDKFTKIKEAILRRNTINFNYVNSLSSQTNRTVEPLKLMYKSKTWYLYGFCKLKDDFRIFRISRIRNLSIKDEVFSRKIIEEVCLNDSKVIKENTITLKLRFKEKMLFRVFDDFNKDLITKNEDDTYDVITEFPIGEWIYGYILSFGDNVEVLEPKDVRDNVITRLRELSKIYSL | not soluble |
| MSEMPAREQMISAYSELVGLDPVSLGDGVAEVRLPMAAHLRNRGGVMHGGALFSLMDVTMGLACSSSHGFDRQSVTLECKINYIRAVADGEVRCVARVLHAGRRSLVVEAEVRQGDKLVAKGQGTFAQL | soluble |
| MSKQENIISHNTDSSLLNTVMQQMKERIINEGDKPHVTVETQLKILQELSQFGFGQFLIKNQGINGYWTHYMLTHPWFGRKTGLNNSREPLSNMECFLLDKAPTMLATQQRFELFLQENQKALVNGATLASIPCGMLGELLYLDFNGINNIQLMGIDYDQAALEDANALAKERNLDRFTTLVCRNAWELNIQEEFDLISSNGLNIYEPDDNKVLDLYQQFHTALKKGGKLVTSFLTPPPHLSSQCEWIFNKINPEDLLLQRIIFSDILNAKFQCYRSSQQTQKQLALAGFKNIHFLYDEAHLFPTVIAEK | not soluble |
| MSLAAEKLRLVADPWPPFTDALLLNGGLATDIVNTALKRAGYTTLYEQVPWARALLGLSEGRHDVLINAWFSEDRKKIGQFSAEYLLNRIRFIKRKESPIDALTHEQLHHYLIAVVRGYAYSPAFDSDVLLKKVPVQNFSTAVRMLAAERVDLTLEDEYVARYNLALEANEVRARVEFLPGSLSENSLHILVSLKNPHHAKIVADFDREIAAMKADGTYEELLRLHGLQGPPEEGHHHHHH | soluble |
| GMNPFQNSFGGHIPQDVAGKQGENVIFIVYNLTDSPDTVDKVKDVCANFSAMIRSMRNRFPDMQFSCTMGFGADAWTRLFPDKGKPKELSTFSEIKGEKYTAVSTPGDLLFHIRAKQMGLCFEFASILDEKLKGAVVSVDETHGFRYMDGKAIIGFVDGTENPAVDENPYHFAVIGEEDADFAGGSYVFVQKYIHDMVAWNALPVEQQEKVIGRHKFNDVELSDEEKPGNAHNAVTNIGDDLKIVRANMPFANTSKGEYGTYFIGYASTFSTTRRMLENMFIGSPAGNTDRLLDFSTAITGTLFFVPSYDLLGELGE | soluble |
| MGEKRKTRQAEVNIGMVGHVDHGKTTLTKALTGVWTDTHSEELRRGITIKIGFADAEIRRCSNCGRYSTSPICPYCGHETEFIRRVSFIDSPGHEALMTTMLAGASLMDGAILVIAANEPCPRPQTREHLMALQIIGQKNIIIAQNKIELVDKEKALENYRQIKEFIKGTVAENAPIIPISALHGANIDVLVKAIEEFIPTPKRDSNKPPKMLVLRSFDVNKPGTPPEKLVGGVLDGSIVQGKLKVGDEIEIRPGVPYEEHGRIKYEPITTEIVSLQAGGQFVEEAYPGGLVGIGTKLDPYLTKGDLMAGNVVGKPGKLPPVWTDLRLEVHLLERVVGTEQELNVEPIKRKEVLLLNVGTARTMGLVTALGKDEIELKLQIPVCAEPGERVAISRQIGSRWRLIGYGIIKELEHHHHHH | soluble |
| MAKLITLGEILIEFNALSPGPLRHVSYFEKHVAGSEANYCVAFIKQGNECGIIAKVGDDEFGYNAIEWLRGQGVDVSHMKIDPSAPTGIFFIQRHYPVPLKSESIYYRKGSAGSKLSPEDVDEEYVKSADLVHSSGITLAISSTAKEAVYKAFEIASNRSFDTNIRLKLWSAEEAKREILKLLSKFHLKFLITDTDDSKIILGESDPDKAAKAFSDYAEIIVMKLGPKGAIVYYDGKKYYSSGYQVPVEDVTGAGDALGGTFLSLYYKGFEMEKALDYAIVASTLNVMIRGDQENLPTTKDIETFLREMKK | soluble |
| MTMEKGMSSGEGLPSRSSQVSAGKITAKELETKQSYKEKRGGFVLVHAGAGYHSESKAKEYKHVCKRACQKAIEKLQAGALATDAVTAALVELEDSPFTNAGMGSNLNLLGEIECDASIMDGKSLNFGAVGALSGIKNPVSVANRLLCEGQKGKLSAGRIPPCFLVGEGAYRWAVDHGIPSCPPNIMTTRFSLAAFKRNKRKLELAERVDTDFMQLKKRRQSSEKENDSGTLDAVGAVVVDHEGNVAAAVSSGGLALKHPGRVGQAALYGCGCWAENTGAHNPYSTAVSTSGCGEHLVRTILARECSHALQAEDAHQALLETMQNKFISSPFLASEDGVLGGVIVLRSCRCSAEPDSSQNKQTLLVEFLWSHTTESMCVGYMSAQDGKAKTHISRLPPGAVAGQSVAIEGGVCRLESPVN | soluble |
| SHPALTQLRALRYSKEIPALDPQLLDWLLLEDSMTKRFEQQGKTVSVTMIREGFVEQNEIPEELPLLPKESRYWLREILLSADGEPWLAARTVVPVSTLSGPELALQKLGKTPLGRYLFTSSTLTRDFIEIGRDAGLWGRRSRLRLSGKPLLLTELFLPASPLY | soluble |
| MGSDKIHHHHHHMPTILEHLAALFDKDMRAVLSNPRAISMIANPSARVQMAAVRRDRSVICFIEKPTEKVQLTAVRNAPHNIHFITSPSERVQLTVIGIRPSYVGFIPNPTEKVQLKAVEKRPECIFLLQKPAEKVQLTAVLKDPRYLSAIREPTEKVQLAAVQKNPECIRHIAEPTEKVQHMAVQRSPDIFRQIRQPEESVRLAAVQAKGENIRYVSAPSEAVQLAAVRNDPMNIRYIENPTEKVQSVVLNADRDAAPFISSPTEEIKRLAMEMYGLRLENAAGKEAAAARTSETSGNSGKKATEGVAKKPSAKQVKEAVEKLDSEIREINREYFQATYEAQYSDNAAERESEISAAGKNREKKLVKAYEKFNSAAVPERKECNVGKIVKELRKERVAVENMKAGEWHSLMKGKAVQPPLVSGASGAAGKGSALMLARTPAGYALKAAGTINQASRQANAEM | not soluble |
| MGSSHHHHHHSSGLVPRGSMAELSEEALLSVLPTIRVPKAGDRVHKDECAFSFDTPESEGGLYICMNTFLGFGKQYVERHFNKTGQRVYLHLRRTRRPKEEDPATGTGDPPRKKPTRLAIGVEGGFDLSEEKFELDEDVKIVILPDYLEIARDGLGGLPDIVRDRVTSAVEALLSADSASRKQEVQAWDGEVRQVSKHAFSLKQLDNPARIPPCGWKCSKCDMRENLWLNLTDGSILCGRRYFDGSGGNNHAVEHYRETGYPLAVKLGTITPDGADVYSYDEDDMVLDPSLAEHLSHFGIDMLKMQKTDKTMTELEIDMNQRIGEWELIQESGVPLKPLFGPGYTGIRNLGNSCYLNSVVQVLFSIPDFQRKYVDKLEKIFQNAPTDPTQDFSTQVAKLGHGLLSGEYSKPVPESGDGERVPEQKEVQDGIAPRMFKALIGKGHPEFSTNRQQDAQEFFLHLINMVERNCRSSENPNEVFRFLVEEKIKCLATEKVKYTQRVDYIMQLPVPMDAALNKEELLEYEEKKRQAEEEKMALPELVRAQVPFSSCLEAYGAPEQVDDFWSTALQAKSVAVKTTRFASFPDYLVIQIKKFTFGLDWVPKKLDVSIEMPEELDISQLRGTGLQPGEEELPDIAPPLVTPDEPKAPMLDESVIIQLVEMGFPMDACRKAVYYTGNSGAEAAMNWVMSHMDDPDFANPLILPGSSGPGSTSAAADPPPEDCVTTIVSMGFSRDQALKALRATNNSLERAVDWIFSHIDDLDAEAAMDISEGRSAADSISESVPVGPKVRDGPGKYQLFAFISHMGTSTMCGHYVCHIKKEGRWVIYNDQKVCASEKPPKDLGYIYFYQRVAS | soluble |
| MATKTKTTEAPVLPLNQILAGDCIETMRSLPECSVDLIFADPPYNLQLRGDLHRPDNSRVDAVDDHWDQFSSFSVYDQFTREWLAAARRLLKPNGAIWVIGSYHNIFRVGAALQDQGFWILNDVVWRKSNPMPNFKGKRLTNAHETLIWASKQEASKYTFNYEALKALNEGVQMRSDWVIPICTGHERLKDEQGDKAHPTQKPEALLHRVMVATTNPGDVVLDPFFGTGTTGAVAKMLGRDFIGIEREESYRRIAAERLSRVRRYDASALEVSGSKRAEPRVPFGQLVERGMLRPGEELYSMNNRHKAKVRADGTLIGNDVKGSIHQVGAALEGAPSCNGWTYWCYKREGKMIPIDILRQQIRAEMEDPRPN | not soluble |
